{"source": "patent US20220064316A1", "about": "(published 2022)", "binders": {"B1": {"name": "BCMA-5 CAR (139104) (other)", "chain": "EVQLLETGGGLVQPGGSLRLSCAVSGFALSNHGMSWVRRAPGKGLEWVSGIVYSGSTYYAASVKGRFTISRDNSRNTLYLQMNSLRPEDTAIYYCSAHGGESDVWGQGTTVTVSSASGGGGSGGRASGGGGSEIVLTQSPATLSVSPGESATLSCRASQSVSSNLAWYQQKPGQAPRLLIYGASTRASGIPDRFSGSGSGTDFTLTISSLQAEDVAVYYCQQYGSSLTFGGGTKVEIKTTTPAPRPPTPAPTIASQPLSLRPEACRPAAGGAVHTRGLDFACDIYIWAPLAGTCGVLLLSLVITLYCKRGRKKLLYIFKQPFMRPVQTTQEEDGCSCRFPEEEEGGCELRVKFSRSADAPAYKQGQNQLYNELNLGRREEYDVLDKRRGRDPEMGGKPRRKNPQEGLYNELQKDKMAEAYSEIGMKGERRRGKGHDGLYQGLSTATKDTYDALHMQALPPR", "notes": "also called AR99-08FA"}, "B2": {"name": "BCMA-7 CAR (139106) (other)", "chain": "EVQLVETGGGLVQPGGSLRLSCAVSGFALSNHGMSWVRRAPGKGLEWVSGIVYSGSTYYAASVKGRFTISRDNSRNTLYLQMNSLRPEDTAIYYCSAHGGESDVWGQGTTVTVSSASGGGGSGGRASGGGGSEIVMTQSPATLSVSPGERATLSCRASQSVSSKLAWYQQKPGQAPRLLMYGASIRATGIPDRFSGSGSGTEFTLTISSLEPEDFAVYYCQQYGSSSWTFGQGTKVEIKTTTPAPRPPTPAPTIASQPLSLRPEACRPAAGGAVHTRGLDFACDIYIWAPLAGTCGVLLLSLVITLYCKRGRKKLLYIFKQPFMRPVQTTQEEDGCSCRFPEEEEGGCELRVKFSRSADAPAYKQGQNQLYNELNLGRREEYDVLDKRRGRDPEMGGKPRRKNPQEGLYNELQKDKMAEAYSEIGMKGERRRGKGHDGLYQGLSTATKDTYDALHMQALPPR", "notes": "also called QR91-12ZA"}, "B3": {"name": "BCMA-4 CAR (139103) (other)", "chain": "QVQLVESGGGLVQPGRSLRLSCAASGFTFSNYAMSWVRQAPGKGLGWVSGISRSGENTYYADSVKGRFTISRDNSKNTLYLQMNSLRDEDTAVYYCARSPAHYYGGMDVWGQGTTVTVSSASGGGGSGGRASGGGGSDIVLTQSPGTLSLSPGERATLSCRASQSISSSFLAWYQQKPGQAPRLLIYGASRRATGIPDRFSGSGSGTDFTLTISRLEPEDSAVYYCQQYHSSPSWTFGQGTKLEIKTTTPAPRPPTPAPTIASQPLSLRPEACRPAAGGAVHTRGLDFACDIYIWAPLAGTCGVLLLSLVITLYCKRGRKKLLYIFKQPFMRPVQTTQEEDGCSCRFPEEEEGGCELRVKFSRSADAPAYKQGQNQLYNELNLGRREEYDVLDKRRGRDPEMGGKPRRKNPQEGLYNELQKDKMAEAYSEIGMKGERRRGKGHDGLYQGLSTATKDTYDALHMQALPPR", "notes": "also called B4; JF32-78IB"}, "B4": {"name": "BCMA-3 CAR (139102) (other)", "chain": "QVQLVQSGAEVKKPGASVKVSCKASGYTFSNYGITWVRQAPGQGLEWMGWISAYNGNTNYAQKFQGRVTMTRNTSISTAYMELSSLRSEDTAVYYCARGPYYYYMDVWGKGTMVTVSSASGGGGSGGRASGGGGSEIVMTQSPLSLPVTPGEPASISCRSSQSLLYSNGYNYVDWYLQKPGQSPQLLIYLGSNRASGVPDRFSGSGSGTDFKLQISRVEAEDVGIYYCMQGRQFPYSFGQGTKVEIKTTTPAPRPPTPAPTIASQPLSLRPEACRPAAGGAVHTRGLDFACDIYIWAPLAGTCGVLLLSLVITLYCKRGRKKLLYIFKQPFMRPVQTTQEEDGCSCRFPEEEEGGCELRVKFSRSADAPAYKQGQNQLYNELNLGRREEYDVLDKRRGRDPEMGGKPRRKNPQEGLYNELQKDKMAEAYSEIGMKGERRRGKGHDGLYQGLSTATKDTYDALHMQALPPR", "notes": "Chimeric antigen receptor; also called KR98-03KA"}, "B5": {"name": "BCMA-11 CAR (139110) (other)", "chain": "QVQLVQSGGGLVKPGGSLRLSCAASGFTFSDYYMSWIRQAPGKGLEWVSYISSSGNTIYYADSVKGRFTISRDNAKNSLYLQMNSLRAEDTAVYYCARSTMVREDYWGQGTLVTVSSASGGGGSGGRASGGGGSDIVLTQSPLSLPVTLGQPASISCKSSESLVHNSGKTYLNWFHQRPGQSPRRLIYEVSNRDSGVPDRFTGSGSGTDFTLKISRVEAEDVGVYYCMQGTHWPGTFGQGTKLEIKTTTPAPRPPTPAPTIASQPLSLRPEACRPAAGGAVHTRGLDFACDIYIWAPLAGTCGVLLLSLVITLYCKRGRKKLLYIFKQPFMRPVQTTQEEDGCSCRFPEEEEGGCELRVKFSRSADAPAYKQGQNQLYNELNLGRREEYDVLDKRRGRDPEMGGKPRRKNPQEGLYNELQKDKMAEAYSEIGMKGERRRGKGHDGLYQGLSTATKDTYDALHMQALPPR", "notes": "also called UG65-93FB"}, "B6": {"name": "BCMA-4NP tool CAR (other)", "chain": "QVQLVQSGAEVKKPGSSVKVSCKASGGTFSNYWMHWVRQAPGQGLEWMGATYRGHSDTYYNQKFKGRVTITADKSTSTAYMELSSLRSEDTAVYYCARGAIYNGYDVLDNWGQGTLVTVSSGGGGSGGGGSGGGGSGGGGSDIQMTQSPSSLSASVGDRVTITCSASQDISNYLNWYQQKPGKAPKLLIYYTSNLHSGVPSRFSGSGSGTDFTLTISSLQPEDFATYYCQQYRKLPWTFGQGTKLEIKR"}, "B7": {"name": "BCMA-2 CAR (139101) (other)", "chain": "QVQLQESGGGLVQPGGSLRLSCAASGFTFSSDAMTWVRQAPGKGLEWVSVISGSGGTTYYADSVKGRFTISRDNSKNTLYLQMNSLRAEDTAVYYCAKLDSSGYYYARGPRYWGQGTLVTVSSASGGGGSGGRASGGGGSDIQLTQSPSSLSASVGDRVTITCRASQSISSYLNWYQQKPGKAPKLLIYGASTLASGVPARFSGSGSGTHFTLTINSLQSEDSATYYCQQSYKRASFGQGTKVEIKTTTPAPRPPTPAPTIASQPLSLRPEACRPAAGGAVHTRGLDFACDIYIWAPLAGTCGVLLLSLVITLYCKRGRKKLLYIFKQPFMRPVQTTQEEDGCSCRFPEEEEGGCELRVKFSRSADAPAYKQGQNQLYNELNLGRREEYDVLDKRRGRDPEMGGKPRRKNPQEGLYNELQKDKMAEAYSEIGMKGERRRGKGHDGLYQGLSTATKDTYDALHMQALPPR", "notes": "also called UR96-08PA"}}, "data": [{"target": "T1, human BCMA (B-cell maturation antigen) on cells (human, UniProt Q02223 1-184)", "T1 sequence (looked up)": "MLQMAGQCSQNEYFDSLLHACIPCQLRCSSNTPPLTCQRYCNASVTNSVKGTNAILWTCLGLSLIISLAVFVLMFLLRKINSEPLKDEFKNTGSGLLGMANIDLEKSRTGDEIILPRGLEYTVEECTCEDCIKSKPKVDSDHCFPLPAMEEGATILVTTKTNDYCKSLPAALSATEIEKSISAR", "assay": "cell-based or functional assay", "units": {"JNL binding assay, ratio to K562; K562-BCMA": "ratio", "JNL binding assay, ratio to K562; NCI-H929": "ratio", "JNL binding assay, ratio to K562; RPMI 8226": "ratio", "Proliferation CD3, ratio to no target; K562-BCMA": "ratio", "Proliferation CD3, ratio to no target; KMS11-luc": "ratio", "Proliferation CD3, ratio to no target; NCI-H929": "ratio", "Proliferation CD3, ratio to no target; RPMI 8226": "ratio", "Proliferation CD4, ratio to no target; K562-BCMA": "ratio", "Proliferation CD4, ratio to no target; KMS11-luc": "ratio", "Proliferation CD4, ratio to no target; NCI-H929": "ratio", "Proliferation CD4, ratio to no target; RPMI 8226": "ratio", "Proliferation CD8, ratio to no target; K562-BCMA": "ratio", "Proliferation CD8, ratio to no target; KMS11-luc": "ratio", "Proliferation CD8, ratio to no target; NCI-H929": "ratio", "Proliferation CD8, ratio to no target; RPMI 8226": "ratio"}, "values": [{"binder": "B1", "JNL binding assay, ratio to K562; K562-BCMA": 2.34, "JNL binding assay, ratio to K562; NCI-H929": 2.34, "JNL binding assay, ratio to K562; RPMI 8226": 2.4, "Proliferation CD3, ratio to no target; K562-BCMA": 1.62, "Proliferation CD3, ratio to no target; KMS11-luc": 1.61, "Proliferation CD3, ratio to no target; NCI-H929": 1.72, "Proliferation CD3, ratio to no target; RPMI 8226": 1.73, "Proliferation CD4, ratio to no target; K562-BCMA": 2.19, "Proliferation CD4, ratio to no target; KMS11-luc": 1.9, "Proliferation CD4, ratio to no target; NCI-H929": 2.23, "Proliferation CD4, ratio to no target; RPMI 8226": 2.15, "Proliferation CD8, ratio to no target; K562-BCMA": 0.99, "Proliferation CD8, ratio to no target; KMS11-luc": 1.27, "Proliferation CD8, ratio to no target; NCI-H929": 1.11, "Proliferation CD8, ratio to no target; RPMI 8226": 1.25}, {"binder": "B2", "JNL binding assay, ratio to K562; K562-BCMA": 2.55, "JNL binding assay, ratio to K562; NCI-H929": 2.36, "JNL binding assay, ratio to K562; RPMI 8226": 2.77, "Proliferation CD3, ratio to no target; K562-BCMA": 1.72, "Proliferation CD3, ratio to no target; KMS11-luc": 1.71, "Proliferation CD3, ratio to no target; NCI-H929": 1.8, "Proliferation CD3, ratio to no target; RPMI 8226": 1.62, "Proliferation CD4, ratio to no target; K562-BCMA": 2.17, "Proliferation CD4, ratio to no target; KMS11-luc": 1.96, "Proliferation CD4, ratio to no target; NCI-H929": 2.23, "Proliferation CD4, ratio to no target; RPMI 8226": 1.91, "Proliferation CD8, ratio to no target; K562-BCMA": 1.08, "Proliferation CD8, ratio to no target; KMS11-luc": 1.35, "Proliferation CD8, ratio to no target; NCI-H929": 1.18, "Proliferation CD8, ratio to no target; RPMI 8226": 1.19}, {"binder": "B3", "JNL binding assay, ratio to K562; K562-BCMA": 4.47, "JNL binding assay, ratio to K562; NCI-H929": 3.31, "JNL binding assay, ratio to K562; RPMI 8226": 6.25, "Proliferation CD3, ratio to no target; K562-BCMA": 7.37, "Proliferation CD3, ratio to no target; KMS11-luc": 8.63, "Proliferation CD3, ratio to no target; NCI-H929": 8.64, "Proliferation CD3, ratio to no target; RPMI 8226": 8.14, "Proliferation CD4, ratio to no target; K562-BCMA": 9.21, "Proliferation CD4, ratio to no target; KMS11-luc": 8.6, "Proliferation CD4, ratio to no target; NCI-H929": 9.86, "Proliferation CD4, ratio to no target; RPMI 8226": 10.1, "Proliferation CD8, ratio to no target; K562-BCMA": 5.66, "Proliferation CD8, ratio to no target; KMS11-luc": 8.74, "Proliferation CD8, ratio to no target; NCI-H929": 7.42, "Proliferation CD8, ratio to no target; RPMI 8226": 6.19}]}, {"target": "T2, BCMA-Fc antigen (R&D Systems) (UniProt Q02223 1-54)", "T2 construct": "also called BCMA fc fusion protein (R&D Systems, cat #193-BC-050); recombinant BCMA-Fc; not shown: Fc portion of the bought fusion protein", "T2 sequence (looked up)": "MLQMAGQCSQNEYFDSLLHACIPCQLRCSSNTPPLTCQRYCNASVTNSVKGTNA", "assay": "flow cytometry; BCMA-Fc staining of CAR-transduced JNL cells", "protocol": "Jurkat-NFAT-luciferase (JNL) cells transduced with BCMA CAR constructs were evaluated for activation in response to BCMA-expressing target cell lines. Small-scale viral supernatant samples were generated in HEK293T cells for transduction of JNL cells. On Day 3 following transduction, BCMA CAR-transduced JNL cells were incubated with target cells at an effector-to-target (E:T) ratio of 6:1. Target cell lines were: K562-BCMA (engineered to stably express BCMA), K562 (parental line), and BCMA positive multiple myeloma cell lines, NCI-H929 and RPMI 8226. JNL activation was measured using Bright-Glo substrate (Promega) on Day 4. CAR expression on transduced JNL was assessed on Day 7 with BCMA-Fc antigen and Biotin-Protein L reagent (Table 21).", "units": {"% CAR+ (BCMA-Fc detection)": "%"}, "values": [{"binder": "B1", "% CAR+ (BCMA-Fc detection)": 28.9}, {"binder": "B4", "% CAR+ (BCMA-Fc detection)": 0}, {"binder": "B5", "% CAR+ (BCMA-Fc detection)": 42.7}, {"binder": "B2", "% CAR+ (BCMA-Fc detection)": 30.4}, {"binder": "B3", "% CAR+ (BCMA-Fc detection)": 49.5}, {"binder": "B6", "% CAR+ (BCMA-Fc detection)": 28.3}, {"binder": "B7", "% CAR+ (BCMA-Fc detection)": 32}]}]}
